Results reported in patent US20180344844A1 (SCHOLAR ROCK, published 2018).
Changes are numbered by the printed parent chain. In names and notes the source's numbering stands. Where two headings read alike, the source gives them in different places.

Tests used:
[1] = molecular target: T1, proGDF8 (mouse) (mouse, UniProt O08689 25-376); test: cell-based or functional assay
[2] = molecular target: T2, proGDF8 (human) (human, UniProt O14793 24-375); test: cell-based or functional assay
[3] = molecular target: T3, proGDF11 (human) (human, UniProt O95390 25-407); test: ForteBio BLI; biotinylated proGDF11 on streptavidin tip, 30 µg/mL antibody, response after 5 minutes of association relative to proGDF8
T3 construct: domain: proGDF11 (prodomain plus growth factor domain)
Procedure: In this assay, biotinylated proGDF11 or biotinylated proMyostatin was immobilized on a ForteBio BLI streptavidin-coated sensor tip, which was applied to wells containing 30 μg/mL of antibody. Interactions of the analyte with the protein immobilized on the chip are measured by the magnitude of the response of the biosensor chip. The biosensor response after 5 minutes of association (a saturating signal for proGDF8) was compared between the two antigens, and expressed as the percent response for GDF8 binding.

[4] = molecular target: T4, BMP10 (UniProt O95393 317-424, limits assumed); test: ForteBio Octet BLI; antigen on the tip (direct amine coupling), Ab1 in solution
T4 construct: mature
T4 sequence (looked up): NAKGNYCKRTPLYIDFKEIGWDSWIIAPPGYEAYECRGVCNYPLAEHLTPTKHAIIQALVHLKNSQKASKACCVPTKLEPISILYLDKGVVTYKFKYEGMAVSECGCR

[5] = molecular target: T5, Mature GDF11 (UniProt O95390 299-407, limits assumed); test: as above
T5 construct: mature; also called GDF11 mature growth factor

[6] = molecular target: T6, Mature TGFB1 (UniProt P01137 279-390); test: as above
T6 construct: mature; also called mature TGFβ1

[7] = molecular target: T7, BMP 9 (UniProt Q9UK05 320-429, limits assumed); test: as above
T7 construct: mature
T7 sequence (looked up): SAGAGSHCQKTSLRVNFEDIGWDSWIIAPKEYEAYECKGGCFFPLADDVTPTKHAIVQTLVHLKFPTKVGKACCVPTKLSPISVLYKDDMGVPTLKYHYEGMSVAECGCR

[8] = molecular target: T8, Mature Activin A (UniProt P08476 311-426); test: as above
T8 construct: mature; also called Activin A growth factor
T8 sequence (looked up): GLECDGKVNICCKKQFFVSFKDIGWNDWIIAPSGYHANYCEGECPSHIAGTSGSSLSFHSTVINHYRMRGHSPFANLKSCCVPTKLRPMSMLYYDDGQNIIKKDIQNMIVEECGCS

[9] = molecular target: T9, Mature GDF8 (UniProt O14793 267-375, limits assumed); test: as above
T9 construct: mature; Amine-coupled to the biosensor tips; also called mature myostatin; mature growth factor of Myostatin

[10] = molecular target: T3, proGDF11 (human); test: ForteBio Octet BLI; biotinylated antigen on streptavidin tip, Ab1 in solution
[11] = molecular target: T10, Pro Activin A (human, UniProt P08476 21-426); test: as above
T10 construct: domain: pro form (prodomain plus growth factor domain)
T10 sequence (looked up): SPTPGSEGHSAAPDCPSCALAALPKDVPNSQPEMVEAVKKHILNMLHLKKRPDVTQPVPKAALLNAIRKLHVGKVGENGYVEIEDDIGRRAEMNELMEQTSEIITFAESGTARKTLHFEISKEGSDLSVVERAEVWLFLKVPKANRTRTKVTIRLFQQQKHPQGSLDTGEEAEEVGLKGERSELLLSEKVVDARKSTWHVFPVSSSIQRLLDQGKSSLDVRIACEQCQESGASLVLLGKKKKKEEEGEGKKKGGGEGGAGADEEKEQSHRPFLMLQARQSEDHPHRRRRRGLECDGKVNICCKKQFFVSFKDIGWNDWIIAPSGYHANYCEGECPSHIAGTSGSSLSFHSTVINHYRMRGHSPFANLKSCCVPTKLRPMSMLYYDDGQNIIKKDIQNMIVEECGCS

[12] = molecular target: T1, proGDF8 (mouse); test: cell-based or functional assay; remark: listed apart in the source
[13] = molecular target: T4, BMP10; test: ForteBio Octet BLI; antigen on biosensor, antibody in solution
Procedure: (§1) Binding affinities of antibody candidates were determined using the FortéBio Octet QKe dip and read label free assay system utilizing bio-layer interferometry. Antigens were immobilized to biosensors (streptavidin-coated biosensors for proGDF8, proGDF11 and proActivin; direct amine coupling for all others) in each experiment and the antibodies/constructs were presented in solution at high concentration (50 μg/mL) to measure binding interactions.
(§2) Binding affinities of antibodies were determined using the FortéBio Octet QKe dip and read label free assay system utilizing bio-layer interferometry. Human proGDF8, latent GDF8, proGDF11 and proActivin were biotinylated and immobilized to streptavidin-coated biosensors (FortéBio). Mature growth factors were immobilized via direct amine coupling to amine reactive tips according to manufacturer's instructions (FortéBio). In each experiment, the antibodies/constructs were presented in solution at a single high concentration (50 μg/mL) to measure binding interactions.

[14] = molecular target: T5, Mature GDF11; test: as above
Procedure: as §1, §2

[15] = molecular target: T6, Mature TGFB1; test: as above
Procedure: as §1, §2

[16] = molecular target: T7, BMP 9; test: as above
Procedure: as §1, §2

[17] = molecular target: T10, Pro Activin A; test: as above
Procedure: as §1, §2

[18] = molecular target: T8, Mature Activin A; test: as above
Procedure: as §1, §2

[19] = molecular target: T9, Mature GDF8; test: as above
Procedure: as §1, §2

[20] = molecular target: T1, proGDF8 (mouse); test: cell-based or functional assay; remark: listed apart in the source
[21] = molecular target: T2, proGDF8 (human); test: Octet binding kinetics to pro- and latent-Myostatin, compared with parental Ab1
[22] = molecular target: T11, latent GDF8 (human) (human, UniProt O14793 24-266; O14793 267-375); test: as above
T11 construct: proGDF8 cleaved by a proprotein convertase; the split after 243 is inferred from that; also called human latent Myostatin; Human latent GDF8

B1: Ab8 (antibody, V domains shown)
VH: QIQLVQSGAEVKKPGASVKVSCKASGYTFTSYGISWVRQAPGQGLEWMGWISAYNGNTNYAQKLQGRVTMTTDTSTSTAYMELSSLRSEDTAVYYCARVGFYDYVWGSYPYDAFDIWGQGTMVTVSS
VL: EIVMTQSPGTLSLSPGERATLSCRASQSVSSNYLAWYQQKPGQAPRLLIYDASNRATGIPARFSGSGSGTDFTLTISSLEPEDFALYYCQQYGTSPLTFGGGTKLEIKR
[1]
  Murine proGDF8 IC50 (µM) Reporter assay: 139 µM
[2]
  Human proGDF8 IC50 (µM) Reporter assay: 6.04 µM

B2: Ab10 (antibody, V domains shown)
VH: EVQLVQSGGGVVQSGRSLRLSCVASGFSFSNYGMHWVRQAPGKGLEWLAFIWYDGSNKWYADSVKGRFTISRDNSKNALYLQMNSLRAEDTAVYYCARDRYSSSWGGGFDYWGQGTVLTVSS
VL: NFMLTQPHSVSESPGRTVTIPCSGRGGSIASDSVQWYQQRPGSAPTTIIYEDNQRPSGVPDRFSGSVDSSSNSASLTISGLRTEDEADYYCQSYDASSLWVFGGKTKLTVLG
[2]
  Human proGDF8 IC50 (µM) Reporter assay: 0.772 µM

B3: Ab1 parental antibody, IgG4 (S228P), lambda (antibody, V domains shown)
VH: QIQLVQSGGGVVQPGRSLRLSCAASGFTFSSYGMHWVRQAPGKGLEWVAVISYDGSNKYYADSVKGRFTISRDNSKNTLYLQMNSLRAEDTAVYYCARDLLVRFLEWSHYYGMDVWGQGTTVTVSS
VL: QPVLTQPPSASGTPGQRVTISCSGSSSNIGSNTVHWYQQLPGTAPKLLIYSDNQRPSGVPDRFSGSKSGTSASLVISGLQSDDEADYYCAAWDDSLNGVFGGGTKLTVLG
notes: also called parental Ab1 IgG4; 24H4 (WT); copies: 2 + 2
[3]
  GDF11 response, expressed as a percentage of GDF8 response: 1.33%
[4]
  binding result: no binding (tested: 50 ug/mL)
[5]
  binding result: no binding (tested: 50 ug/mL)
[6]
  binding result: no binding (tested: 50 ug/mL)
[7]
  binding result: no binding (tested: 50 ug/mL)
[8]
  binding result: no binding (tested: 50 ug/mL)
[9]
  binding result: no binding (tested: 50 ug/mL)
[10]
  binding result: no binding (tested: 50 ug/mL)
[11]
  binding result: no binding (tested: 50 ug/mL)
[12]
  Activity Assay - 293T cells EC50: 839 nM

B4: Ab4 (Ab3 with germline framework residues), IgG4 (S228P), lambda (antibody, V domains shown)
VH: B3 VH with I2V, Q6E, T28A, N57I, Y110K
VL: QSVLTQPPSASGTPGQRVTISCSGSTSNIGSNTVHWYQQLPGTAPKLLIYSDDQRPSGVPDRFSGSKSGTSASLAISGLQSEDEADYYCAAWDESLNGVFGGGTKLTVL
notes: human IgG4/lambda framework with S228P; also called Ab4 germline
[13]
  binding result: no binding (tested: 50 µg/mL)
[14]
  binding result: no binding (tested: 50 µg/mL)
[15]
  binding result: no binding (tested: 50 µg/mL)
[16]
  binding result: no binding (tested: 50 µg/mL)
[17]
  binding result: no binding (tested: 50 µg/mL)
[18]
  binding result: no binding (tested: 50 µg/mL)
[19]
  binding result: no binding (tested: 50 µg/mL)
[3]
  GDF11 response, expressed as a percentage of GDF8 response: 2.51%
[20]
  Activity Assay - 293T cells EC50: 447 nM

B5: Ab5 (affinity optimized variant of Ab1, parental frameworks) (antibody, IgG4, V domains shown)
VH: B3 VH with T28A, S56N, Y110K
VL: QPVLTQPPSASGTPGQRVTISCSGSSSNIGGNTVHWYQQLPGTAPKLLIYSDDQRPSGVPDRFSGSKSGTSASLVISGLQSDDEADYYCAAWDESLNGVFGGGTKLTVLG
notes: also called Ab5 parental; copies: 2 + 2
[21]
  binding result: binds
[22]
  binding result: binds

B6: Ab6 (Ab5 with germline framework residues), IgG4 (S228P), lambda (antibody, V domains shown)
VH: B3 VH with I2V, Q6E, T28A, S56N, Y110K
VL: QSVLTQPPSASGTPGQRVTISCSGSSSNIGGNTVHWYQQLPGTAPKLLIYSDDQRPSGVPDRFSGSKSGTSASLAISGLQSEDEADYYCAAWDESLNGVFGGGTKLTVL
notes: human IgG4/lambda framework with S228P; also called Ab6 germline
[13]
  binding result: no binding (tested: 50 µg/mL)
[14]
  binding result: no binding (tested: 50 µg/mL)
[15]
  binding result: no binding (tested: 50 µg/mL)
[16]
  binding result: no binding (tested: 50 µg/mL)
[17]
  binding result: no binding (tested: 50 µg/mL)
[18]
  binding result: no binding (tested: 50 µg/mL)
[19]
  binding result: no binding (tested: 50 µg/mL)
[3]
  GDF11 response, expressed as a percentage of GDF8 response: 2.07%

B7: Ab3 (affinity optimized variant of Ab1, parental frameworks) (antibody, IgG4, V domains shown)
VH: B3 VH with T28A, N57I, Y110K
VL: B5 VL with S26T, G31S
notes: also called Ab3 parental; copies: 2 + 2
[21]
  binding result: binds
[22]
  binding result: binds

B8: Ab9 (antibody, V domains shown)
VH: QVQLVQSGAEVKKPGSSVKVSCKASGGTFSSYAISWVRQAPGQGLEWMGGIIPIFGTANYAQKFQGRVTITADESTSTAYMELSSLRSEDTAVYYCANHGLMDDSSGYYLSNAFDIWGQGTMVTVSS
VL: not shown
[1]
  Murine proGDF8 IC50 (µM) Reporter assay: 19.9 µM
[2]
  Human proGDF8 IC50 (µM) Reporter assay: 12.2 µM

B9: Ab7 (antibody, V domains shown)
VH: QVQLQQSGAEVKKPGASVKVSCKASGYTFTSYYMHWVRQAPGQGLEWMGIINPSGGSTSYAQKFQGRVTMTRDTSTSTVYMELSSLRSEDTAVYYCARESLIRFLEDPQQGGMDVWGQGTTVTVSS
VL: QSALTQPASVSGSPGQSLTISCTGTSSDIGGYNYVSWYQQHPGKAPKLIIYDVTDRPSGVSGRFSGSKSGNTASLTISGLQTEDEAEYFCNSWTRSNNYIFGGGTKLTVLG
[1]
  Murine proGDF8 IC50 (µM) Reporter assay: 1.68 µM
[2]
  Human proGDF8 IC50 (µM) Reporter assay: 0.983 µM
